# Results as given in patent publication US20200299403A1.
# Experiments:
# [1] = target: HER2 (HER2/c-erb-2 gene product) on SKBR3 cells (UniProt P04626); experiment: FACS on SKBR3 cells, one site specific binding fit
# [2] = target: HER2 (HER2/c-erb-2 gene product) on SKBR3 cells (UniProt P04626); experiment: FACS on SKBR3 cells, Alexa 647 Protein L detection, one site specific binding fit (column head prints 'SKBR3 Cell Binding IC50, nM')
Substance,Kd [1],Kd [2]
scFv-Fc (-1) pN3F DBCO-MMAF (Fc fusion),0.0068 µM,–
"trastuzumab scFv (VL_VH) with pN3F at position (-1), conjugated to DBCO-MMAF",–,0.014 µM
